The target in data set [1] is T1, DmCPD1Bs (D. melanogaster carboxypeptidase D variant 1B short) (Drosophila melanogaster, UniProt P42787).
T1 sequence (P42787 26-435 isoform P42787-7): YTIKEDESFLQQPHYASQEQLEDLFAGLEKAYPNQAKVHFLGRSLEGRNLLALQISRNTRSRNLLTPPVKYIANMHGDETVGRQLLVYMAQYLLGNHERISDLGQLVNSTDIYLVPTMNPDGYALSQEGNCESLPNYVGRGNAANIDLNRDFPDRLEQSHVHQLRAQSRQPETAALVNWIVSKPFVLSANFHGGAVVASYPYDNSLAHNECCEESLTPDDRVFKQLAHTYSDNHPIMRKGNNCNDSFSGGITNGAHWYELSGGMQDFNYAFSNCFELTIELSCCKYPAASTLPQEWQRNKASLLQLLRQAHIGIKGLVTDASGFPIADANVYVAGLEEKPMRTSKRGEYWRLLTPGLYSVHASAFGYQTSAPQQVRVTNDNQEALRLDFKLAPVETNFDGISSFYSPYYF
Put plainly: crystal structure at […] Å. The data set is classed as biochemical.

Data set [2] can be described thus: recombinant expression yield in P. pastoris. As to conditions: glycan lost; control: wild type.
Substrate in the data set “purified protein”: N=C(N)NCCC[C@H](NC(=O)CNC(=O)c1ccccc1)C(=O)O
Put plainly: purified protein. As to conditions: Zn2+.

Results on five molecules are retold here after PMC7089606 (Journal of Molecular Biology, 2010).

Turning to `N=C(N)NCCSC(CC(=O)O)C(=O)O` (stereo not drawn) [GEMSA, 2-guanidinoethyl-mercaptosuccinic acid], in data set [1], the Ki amounted to 670 ± 80 nM. Regarding “DmCPD1Bs (carboxypeptidase D variant 1B short, svr-PF): N269Q”, in data set [2], the expression_or_secretion entry was “decreases”. As to “DmCPD1Bs (carboxypeptidase D variant 1B short, svr-PF): N133Q”, the expression_or_secretion result in data set [2] is recorded as “decreases”.

B1: human CPB (hCPB) (Homo sapiens) (protein)
chain: ATGHSYEKYNKWETIEAWTQQVATENPALISRSVIGTTFEGRAIYLLKVGKAGQNKPAIFMDCGFHAREWISPAFCQWFVREAVRTYGREIQVTELLDKLDFYVLPVLNIDGYIYTWTKSRFWRKTRSTHTGSSCIGTDPNRNFDAGWCEIGASRNPCDETYCGPAAESEKETKALADFIRNKLSSIKAYLTIHSYSQMMIYPYSYAYKLGENNAELNALAKATVKELASLHGTKYTYGPGATTIYPAAGGSDDWAYDQGIRYSFTFELRDTGRYGFLLPESQIRATCEETFLAIKYVASYVLEHLY
As to B1, in the data set “purified protein”, the Michaelis constant (Km) stood at 485.3 ± 62.5 µM, the kcat is 254 ± 11.9 s⁻¹ and the kcat/Km was found to be 523000 M⁻¹ s⁻¹.

B2: DmCPD1Bs (D. melanogaster carboxypeptidase D variant 1B short) (Drosophila melanogaster) (protein)
chain: T1 sequence (P42787 26-435 isoform P42787-7)
With B2, in “purified protein”, the Km is 1112 ± 167 µM, the catalytic constant (kcat) is 38.8 ± 4.1 s⁻¹ and the specificity constant (kcat/Km) came out at 34900 M⁻¹ s⁻¹.
